Reference: PMC6230944, “Mitochondrial alternative oxidase‐dependent autophagy involved in ethylene‐mediated drought tolerance in Solanum lycopersicum”

B1: ATG8d promoter probe (WT DRE) (dsDNA)
DNA 1: TCACGTTACATATGACCGACATAAAGATAA
DNA 2: TTATCTTTATGTCGGTCATATGTAACGTGA
B2: ATG8d-competitor (mutated DRE) (dsDNA)
DNA 1: TCACGTTACATATGACAAACATAAAGATAA
DNA 2: TTATCTTTATGTTTGTCATATGTAACGTGA
B3: ATG18h promoter probe (WT DRE) (dsDNA)
DNA 1: GCGGTGAAAAGACCGACGGACGAAACGTGA
DNA 2: TCACGTTTCGTCCGTCGGTCTTTTCACCGC
B4: ATG18h-competitor (mutated DRE) (dsDNA)
DNA 1: GCGGTGAAAAGATTGACGGACGAAACGTGA
DNA 2: TCACGTTTCGTCCGTCAATCTTTTCACCGC

Each binder was assayed against ERF5 (Solanum lycopersicum, UniProt Q6Q4I4 1-244) (assay: EMSA; EMSA Kit with SYBR Green & SYPRO Ruby stains (Invitrogen), per kit instructions; buffer, salt, pH, temperature not stated). Conditions: protein: recombinant; tags: pET-32a vector fusion (His control used); label: none (SYBR Green stain).
Sequence of ERF5 (Q6Q4I4 entry or part of it): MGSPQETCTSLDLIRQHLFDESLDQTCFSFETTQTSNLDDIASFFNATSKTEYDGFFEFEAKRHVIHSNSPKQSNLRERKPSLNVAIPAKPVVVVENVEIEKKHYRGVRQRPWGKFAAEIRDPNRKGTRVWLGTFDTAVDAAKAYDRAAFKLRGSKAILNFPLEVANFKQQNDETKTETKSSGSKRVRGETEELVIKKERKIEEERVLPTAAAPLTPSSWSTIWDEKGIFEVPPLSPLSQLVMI

Binder | binding result
B1 | binds
B2 | no binding
B3 | binds
B4 | no binding
